Test results as given in paper PMC3228729, “Localization of ASV Integrase-DNA Contacts by Site-Directed Crosslinking and their Structural Analysis”.

T1: ASV integrase WT (avian sarcoma virus, UniProt P03354 1281-1567)
T1 sequence: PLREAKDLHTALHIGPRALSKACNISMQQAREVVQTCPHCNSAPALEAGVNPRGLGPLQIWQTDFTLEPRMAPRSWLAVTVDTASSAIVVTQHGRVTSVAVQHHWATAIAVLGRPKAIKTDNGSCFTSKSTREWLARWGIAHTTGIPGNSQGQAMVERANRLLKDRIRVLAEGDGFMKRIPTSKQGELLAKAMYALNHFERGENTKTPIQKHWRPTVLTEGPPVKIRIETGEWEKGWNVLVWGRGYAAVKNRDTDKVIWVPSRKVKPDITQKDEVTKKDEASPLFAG

B1: NH2-3.11 linear (dsDNA)
DNA 1: AATGTAGTCTTATGCAATACTC
DNA 2: GAGTATTGCATAAGACTACATT
modifications: 5-aminouridine replacing T at position 11 of strand 3 (paper numbering), carrying aryl diazirine
B2: NH2-4.12 linear (dsDNA)
DNA 1: GAGTATTGCATAAGACTACATT
DNA 2: AATGTAGTCTTATGCAATACTC
modifications: 5-aminouridine at position 12 of strand 4 (paper numbering), carrying aryl diazirine

Target: T1, ASV integrase WT
Test: photocrosslinking; DNA-borne diazirine; among highest efficiency; Photocrosslinking: 40 mM HEPES pH 6.5, 150 mM NaCl, 5% glycerol, 0 C, 10 uM IN, 0.05 uM DNA; disulfide: Buffer 1 adjusted to 250-300 mM NaCl, pH 7.5, on ice, +/-10 mM MgCl2
Conditions: protein: recombinant; label: 32P; blunt

Row | Binder | binding result
1 | B1 | binds
2 | B2 | binds
